The nature of the series: protease stability score; higher = more stable; yeast display proteolysis, trypsin and chymotrypsin.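 Further: relative to predicted unfolded state with 0 unfolded-like and 1 meaning tenfold more protease.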
“SEDDHELKEELKIIMKSSLTGDEDTLNRLADPHARIHQGEFNLHGREEFSRLFVELRMHDIRIEDYEVIDGRVEVDIRLNIHYNGKRYIKVTRSVFRKVDGRWLIEEVRYD” showed a protease stability score of 0.494.

“SEDDHERHRFLELIKHNHKTGNEENIYRMADPDVRLHIGDKEFHGMEHHMEFLREWLDRLGIDKVEFQVERIHVQGDKINVDVNLNVNGKHYRVILYLIKIDGRWRIKLLEIR” registered a protease stability score of 0.884.

As for “SEDDHMAELASRLVHERVKTGDPRVVDELLDPNVRLEYGDKEWHGREEFRKFLRHLRLHDVHIRSYEIQGDKVYIDGRVDGEVNGKRSLLETHIYAKKIDGRWLETSVVMK”, the protease stability score turned out to be 0.561.

Turning to “SEDDHRAHEWFRIVFHWLLTGDEEHFDRYADPHTKVDINGVEFHGREEVRRWIYEIRLKDNRIRSVRAVGEKNESDGHRNGHIGDKHIVTDVEVRLHVVDGRIKSIHIIIH”, the protease stability score amounted to 0.981.

In turn, “SEDDKMQEIAVELLEHTLKTGDEHTSKKLVDPHVRLQIGDKEHHGRDEVTRWLTELAQRADHMHIEIKDMFNVNGVVIMHGTLKIHIGDKELRLDVEWIILKYNGKWLIHSIHIR” showed a protease stability score of 1.94.

“SEDDKREQDYHHYMMEIILTGDFKELFDLADPNVRLRIGDKHFHGRERMLDWYKHLSDRYKNARIHLHKKDYIGEKVIFHEIIHWNGKEVELHINMVIVNGRIRSIHVEDNER” yielded a protease stability score of 1.39.

Take “SEDDKRLREIADLWKHAFLTGDFNLIHKLMDPHARWVVNGQHVHGMEEWEHFLERIDVFRIESSRTDHIEVYGDKVQIDGHSNVKIQIGDKKIDLITRMEIRLIIINGRYHQVEHIVR”: the protease stability score came out at 0.707.

On to “SEDDKVVEEIARLWLHWVLTGDEEHLRELLDPHVRLHIDGRTYIGREEFLHKFHELRIHRFELKSIHVIGDKAQVDGHQDYKYNGKRIHLDTKVDLVVVDGVMHEIHIHLK”, for which the protease stability score was 1.78.

“SEDDNLNEWMMRVWLTTLRTGDEKNTERLLDPNARLHVGDKDFHGRELLTKHFYDEVETLGFKHSELKRLLYQGEKMIIHVEVNINGVDIHIDVHIRKIDGRWYIHQVHVR” had a protease stability score of 2.14.

“SEDDNMAEHVLRYFIEHHLTGDFDSILKLMDPNMRLEVNGREHWGRKRWSEHLLRMGFDHVDIEEHRINSYGNFAYEIIHGRYHINGQEINITLIINVEKVNGKWIIREVTIVKR” showed a protease stability score of 1.74.

Take “SEDDQLVRELMRRIMKNIMTGDEEKHLNLVDPHARTIFDGREYHGRELYTMVFRILYNRIDHWTDLKVEHVSIYDGVIEIHVRADVDINGKRTEITMIIFVNKVNGRWIIEYVVYS”: the protease stability score was found to be 1.37.

As to “SEDDRDAEKMSKDWIHLMLTGDEDHLRELLDPNVRMEQGDKEFIGRELLVEVFSRTVKHLGIKHIQLEESRTNVQGEKVIVILIMDYRAENRRVEFHIHLIVDKVNGRWLVQSVRFRFK”, the protease stability score worked out at 1.25.

For the sequence “SEDDRDANNMREILQHLWFTGNEEEFLRLLDPDTLFHVNGQQKVGRERVEELLHHLLEKLGADHEEIHDWEVRLQGDKLDIHVHIRLIIGDKEFRIHIDFHIYKIDGRWRIHSVKLEIK”, the protease stability score turned out to be 2.1.

In turn, “SEDDRDSKEAKHLLHELIRTGDEDELVKLLDPNMIIIVGDKEYIGWEQAVRLLRELNRRFDHVELRFRDIEIQGEWVDTDIELIYRFDGRETRIDTRFIAYKVDGRWFNHHIEIK” yielded a protease stability score of 0.582.

With “SEDDRENHRFMEQFLHDWETGDEDSLRKLADPDVKVRINGVDLHGWSFFEDYLRRVDHIDDFKIDHVEIQGDKIKIHGQQHGRIDGRRDTYKVQNFFIKIDGKWRLKMVINR”, the protease stability score came out at 1.34.

The sequence “SEDDSDLEEYLRLWVKAWMTGDEDLLRTLLDPHTRFQSHVNGKEVERHGMEVVSHWLRKFKNIRFEVHHVHVVNGVLYHETRVKFDGVRIETELNAIVVDGKNKFLNIHIK” had a protease stability score of 0.299.

As for “SEDEDAFNELLKIHVEALHTGDWRSIRELLDPNARVRIDGKEYVGRESVEEHLRRIKNLTIHEIRIDDIRIQGDYVHVDGHVRGHFNGQEELHHVEFIMLKVNGRWRIKEIRIK”, the protease stability score turned out to be 2.26.

With “SEDEDELKEWIRIIIHLLTTGNEDLIENNADPNVRIEFNGKTYHGMEDFHEWMRYAINELRFHDFRLDSFRIVNGKVDLNTTLIGNINGVLTRRETRMIIIKVNGRWLIHALVFK”, the protease stability score was determined as 1.75.

“SEDEDFAKKWTDEILTAFLTGDWKLLSDLVDPNVRVIYGEFHFHGREQTIKWLEHHYREIRIHDYKIKHIEVQGEKVIVDGEVDRHYNGRRHRIHTEIIIIIFNGVIREIEFREN” displayed a protease stability score of 2.05.

The sequence “SEDEDFMQKALKHDWELWETGDEEKIQKQADPHVRMDFDGVEYHGMELFSELLDRYLRKVKGLQIRLRHVHVKIINGQAIMDIDGTVNINGREIRLHIKIFNEKINGKWIHSSIRFEFR” came in with a protease stability score of 1.21.

In the case of “SEDEDHARLMFELLLRMITTGDEESLRELVDPNVRVSVDGVDLHGWDSLSKFLKHIRIRVDHSEMHDMRVIDGVLQANTHMQITVEFNGRRVQRQVETRVEVVKINGKWAIHRFSVH”, the protease stability score came to 2.55.

As for “SEDEDIAKEILRLLLEALRTGDWHTVHRLMDPHARVHVNGRDFIGMEEVLRWLEEFLRHMRLRSLTVHDIRIFDGRLHVDSRSDVEIDGRRISIETEVIILKVDGRWHVKSIIFR”, the protease stability score worked out at 1.36.

As to “SEDEDISRNFLELEWKKHMTGDWRTFAENIDPNARVDIDGVEFHGRELISRLMHEKIRKHGVKIKHLHIDHVSSQGDKIHINTTLVGLFNGRDTHLEVHIVITKINGRWVLQEFHFD”, the protease stability score worked out at 0.591.

In turn, “SEDEDLFHHVLHVWLNAMETGDFEVFKHLLDPRTKEHQGDKHLIGREDALRKFREEWEKYPNMRVEIRVDDWDIQGNKIRAKVHIIIRQGDKTYSVEIDLIMVKVNGRWFIHSIIIH” showed a protease stability score of 0.966.

Turning to “SEDEDLSRHLSELWLDALRTGDEKSTHKMADPHTRVEVGDKTDHGMEVWNRIFERFKGARLEITEWRTIGEKVHYHMHIEYGDKHVDVEIEIIQINGQVKEFIIRVRIK”, the protease stability score worked out at 0.249.

With “SEDEDNMHEFFRIWSRVQETGDEEAMLKLMDPNVRTDINGVELHGREEFEKELHRLIFEWGFDRFVVHIEHEDIFNGRIHVRSRVIYGDKEVHVIIHVYKVNGQWRVEELRFE”, the protease stability score amounted to 1.41.

On to “SEDEEAAHRFLQMFLSTSHTGDEKESRELADPHVRIDIDGQKHHGRHEWVKVFRHLRIHNIEIKDYHVIDGRLRLDYKVDLEVGDKKIEHRLHIDVEKIDGRWEIQRVHLI”, for which the protease stability score is 1.58.

As to “SEDEEAAHWLTLVLIELFRTGDEDSFTKLLDPNARMHVGDKDFHGRHHILHWILHFLRELGVDHRDMKVEDQHFYDGRLELHVTIIIIVGDKKIRIESHFYVEKVNGRWLVKKIHIH”, the protease stability score is 1.41.

As for “SEDEEAAKHMFELLVHHIETGDEESLRKLLDPNVRMDIDGRIIHGREIFARQMFLESLHIRTEFRLKHVDTIGEKLHLFTEVTYKINGVHIKRDTRVIILKVDGRWVFHSIRFE”, the protease stability score came to 0.951.

“SEDEEAAKRLTDLLIHNWETGNEDELHRLIDPNMREDVNGKEFHGWSYMVHFLRRIDHVFSHITIHDIKSVGDYVYIDGTVDEIFHIGDSKIRINIRVTIIILKINGRWIMTHVHVK” registered a protease stability score of 1.32.

In turn, “SEDEEAIERFLREFVKAERTGDEKTILSLMDPHVRIHQGDWEVHGRDDLRHFFHRIDHVRSRFHLTHVDHQGDKAIFKGTVEYHIHVDGKDIHSTSSVDIHVRKINGRWLMHNVHIE” came in with a protease stability score of 1.63.

The sequence “SEDEEAIRHALRIFEEVLQTGDEHSIENLFDPNTRIDINGKHLHGWHKLEEWLSRFDHLEVHVHIHSSNVFDGRIHNDTRVKMHLYINGKIIELHQETHIISKKVNGRWYVKMIIIR” came in with a protease stability score of 1.17.

“SEDEEALKKAIDLLFESLLTGDERELEKLADPNYRMEVNGKEIHGRELFSKTMIDILQRLGIDHIDFRIEHDETQGDKVIIEGKLIFKVGDKHIEIKSRLIVLKVDGQWILRHSRMH” displayed a protease stability score of 2.05.

The sequence “SEDEEASKEMLERLIESIKTGDWRHDSNMVDPHARFRVGDKEFHGRDDLEHLVKHLGIKHVEVQHVRTYGNKMELHGWERFNGREVRVELHFVKIDGQWVLTEYRVR” showed a protease stability score of 0.616.

Source of the values: the NTF2 design screens of Basanta et al. (2020).
